Patent US20160264649A1

Columns and labels:
Experiment in all cases: cell-based or functional assay
[1] = target: HIV-1 Env of isolate MG RM-C-027 (subtype C) (HIV-1)
[2] = target: HIV-1 MGRM-A-004 Env (HIV-1)
[3] = target: HIV-1 92WR024 Env (HIV-1)
[4] = target: HIV-1 MGRM-AG-002 Env (HIV-1)
[5] = target: HIV-1 92WR026 Env (HIV-1)
[6] = target: HIV-1 MGRM-AE-008 Env (HIV-1)
[7] = target: HIV-1 MGRM-A-007 Env (HIV-1)
[8] = target: HIV-1 MGRM-AE-004 Env (HIV-1)
[9] = target: HIV-1 MGRM-AG-003 Env (HIV-1)
[10] = target: HIV-1 MGRM-A-006 Env (HIV-1)
[11] = target: HIV-1 MGRM-AG-012 Env (HIV-1)
[12] = target: HIV-1 Env of isolate MG RM-C-024 (subtype C) (HIV-1)
[13] = target: HIV-1 MGRM-AG-011 Env (HIV-1)
[14] = target: HIV-1 MGRM-AE-002 Env (HIV-1)
[15] = target: HIV-1 MGRM-A-011 Env (HIV-1)
[16] = target: HIV-1 MGRM-A-013 Env (HIV-1)
[17] = target: HIV-1 92WR021 Env (HIV-1)
[18] = target: HIV-1 MGRM-A-014 Env (HIV-1)
[19] = target: HIV-1 MGRM-A-010 Env (HIV-1)
[20] = target: HIV-1 MGRM-A-009 Env (HIV-1)
[21] = target: HIV-1 MGRM-A-005 Env (HIV-1)
[22] = target: HIV-1 94UG103 Env (HIV-1)
[23] = target: HIV-1 MGRM-AE-007 Env (HIV-1)
[24] = target: HIV-1 93WR029 Env (HIV-1)
[25] = target: HIV-1 VLGCA1 Env (HIV-1)
[26] = target: HIV-1 MGRM-AE-006 Env (HIV-1)
[27] = target: HIV-1 MGRM-A-003 Env (HIV-1)
[28] = target: HIV-1 CMU02 Env (HIV-1)
[29] = target: HIV-1 Env of isolate MG RM-C-019 (subtype C) (HIV-1)
[30] = target: HIV-1 MGRM-A-008 Env (HIV-1)
[31] = target: HIV-1 MGRM-AG-001 Env (HIV-1)
[32] = target: HIV-1 92TH021 Env (HIV-1)
[33] = target: HIV-1 Env of isolate MG RM-C-026 (subtype C) (HIV-1)
[34] = target: HIV-1 MGRM-AG-006 Env (HIV-1)
[35] = target: HIV-1 MGRM-AG-008 Env (HIV-1)
[36] = target: HIV-1 93UG077 Env (HIV-1)
[37] = target: HIV-1 Env of isolate MG RM-C-028 (subtype C) (HIV-1)
[38] = target: HIV-1 MGRM-A-002 Env (HIV-1)
[39] = target: HIV-1 92RW008 Env (HIV-1)
[40] = target: HIV-1 92WR020 Env (HIV-1)
[41] = target: HIV-1 MGRM-AE-003 Env (HIV-1)
[42] = target: HIV-1 92UG031 Env (HIV-1)
[43] = target: HIV-1 MGRM-AE-001 Env (HIV-1)
[44] = target: HIV-1 Env of isolate MG RM-C-022 (subtype C) (HIV-1)
[45] = target: HIV-1 MGRM-AE-005 Env (HIV-1)
[46] = target: HIV-1 MGRM-A-001 Env (HIV-1)
[47] = target: HIV-1 Env of isolate MG RM-C-025 (subtype C) (HIV-1)
[48] = target: HIV-1 MGRM-A-012 Env (HIV-1)
[49] = target: HIV-1 MGRM-AG-005 Env (HIV-1)
[50] = target: HIV-1 Env of isolate MG RM-C-020 (subtype C) (HIV-1)
[51] = target: HIV-1 MGRM-AG-013 Env (HIV-1)
[52] = target: HIV-1 MGRM-AG-009 Env (HIV-1)
[53] = target: HIV-1 Env of isolate MG RM-C-023 (subtype C) (HIV-1)
[54] = target: HIV-1 94KE105 Env (HIV-1)
[55] = target: HIV-1 92WR009 Env (HIV-1)
[56] = target: HIV-1 92UG037 Env (HIV-1)

## 5136_H01 (PGT-131) (antibody)
[1]
  IC50: 0.065 µg/mL
[2]
  IC50: > 50 µg/mL
[3]
  IC50: > 50 µg/mL
[4]
  IC50: > 50 µg/mL
[5]
  IC50: 0.041 µg/mL
[6]
  IC50: > 50 µg/mL
[7]
  IC50: > 50 µg/mL
[8]
  IC50: > 50 µg/mL
[9]
  IC50: 2.92 µg/mL
[10]
  IC50: > 50 µg/mL
[11]
  IC50: > 50 µg/mL
[12]
  IC50: > 50 µg/mL
[13]
  IC50: > 50 µg/mL
[14]
  IC50: > 50 µg/mL
[15]
  IC50: > 50 µg/mL
[16]
  IC50: > 50 µg/mL
[17]
  IC50: 0.012 µg/mL
[18]
  IC50: 15.4 µg/mL
[19]
  IC50: 0.01 µg/mL
[20]
  IC50: 0.035 µg/mL
[21]
  IC50: > 50 µg/mL
[22]
  IC50: 1.1 µg/mL
[23]
  IC50: 0.026 µg/mL
[24]
  IC50: > 50 µg/mL
[25]
  IC50: > 50 µg/mL
[26]
  IC50: 0.026 µg/mL
[27]
  IC50: > 50 µg/mL
[28]
  IC50: > 50 µg/mL
[29]
  IC50: 0.021 µg/mL
[30]
  IC50: > 50 µg/mL
[31]
  IC50: > 50 µg/mL
[32]
  IC50: 0.014 µg/mL
[33]
  IC50: 1.67 µg/mL
[34]
  IC50: 0.019 µg/mL
[35]
  IC50: > 50 µg/mL
[36]
  IC50: > 50 µg/mL
[37]
  IC50: > 50 µg/mL
[38]
  IC50: > 50 µg/mL
[39]
  IC50: 1.01 µg/mL
[40]
  IC50: 0.168 µg/mL
[41]
  IC50: 1.41 µg/mL
[42]
  IC50: > 50 µg/mL
[43]
  IC50: 4.8 µg/mL
[44]
  IC50: 0.78 µg/mL
[45]
  IC50: 0.017 µg/mL
[46]
  IC50: > 50 µg/mL
[47]
  IC50: > 50 µg/mL
[48]
  IC50: > 50 µg/mL
[49]
  IC50: 1.04 µg/mL
[50]
  IC50: > 50 µg/mL
[51]
  IC50: 0.03 µg/mL
[52]
  IC50: > 50 µg/mL
[53]
  IC50: 0.143 µg/mL
[54]
  IC50: 0.013 µg/mL
[55]
  IC50: 3.12 µg/mL
[56]
  IC50: 0.048 µg/mL

## 5114_A19 (PGT-128) (antibody)
[1]
  IC50: 0.081 µg/mL
[2]
  IC50: > 50 µg/mL
[3]
  IC50: > 50 µg/mL
[4]
  IC50: 4.99 µg/mL
[5]
  IC50: 0.01 µg/mL
[6]
  IC50: > 50 µg/mL
[7]
  IC50: > 50 µg/mL
[8]
  IC50: > 50 µg/mL
[9]
  IC50: 34.8 µg/mL
[10]
  IC50: > 50 µg/mL
[11]
  IC50: > 50 µg/mL
[12]
  IC50: > 50 µg/mL
[13]
  IC50: 3.93 µg/mL
[14]
  IC50: 0.522 µg/mL
[15]
  IC50: > 50 µg/mL
[16]
  IC50: 0.008 µg/mL
[17]
  IC50: 0.005 µg/mL
[18]
  IC50: 0.007 µg/mL
[19]
  IC50: 0.005 µg/mL
[20]
  IC50: 0.005 µg/mL
[21]
  IC50: > 50 µg/mL
[22]
  IC50: 0.011 µg/mL
[23]
  IC50: > 50 µg/mL
[24]
  IC50: > 50 µg/mL
[25]
  IC50: 0.838 µg/mL
[26]
  IC50: 0.044 µg/mL
[27]
  IC50: > 50 µg/mL
[28]
  IC50: > 50 µg/mL
[29]
  IC50: 0.01 µg/mL
[30]
  IC50: > 50 µg/mL
[31]
  IC50: 4.73 µg/mL
[32]
  IC50: 0.01 µg/mL
[33]
  IC50: 0.007 µg/mL
[34]
  IC50: 0.009 µg/mL
[35]
  IC50: 0.668 µg/mL
[36]
  IC50: 0.014 µg/mL
[37]
  IC50: 14.4 µg/mL
[38]
  IC50: 0.149 µg/mL
[39]
  IC50: 0.003 µg/mL
[40]
  IC50: 0.005 µg/mL
[41]
  IC50: 0.18 µg/mL
[42]
  IC50: > 50 µg/mL
[43]
  IC50: 0.069 µg/mL
[44]
  IC50: 0.042 µg/mL
[45]
  IC50: 0.032 µg/mL
[46]
  IC50: > 50 µg/mL
[47]
  IC50: 10.5 µg/mL
[48]
  IC50: 0.025 µg/mL
[49]
  IC50: 0.037 µg/mL
[50]
  IC50: 5.85 µg/mL
[51]
  IC50: 0.004 µg/mL
[52]
  IC50: 0.021 µg/mL
[53]
  IC50: 0.026 µg/mL
[54]
  IC50: 0.007 µg/mL
[55]
  IC50: 0.812 µg/mL
[56]
  IC50: 0.006 µg/mL
